Our source for the Kd values is patent publication US20180273626A1.

Assay [1] deals with FcεRIα (human) (UniProt P12319). Kind of assay: SPR; insect derived. Background: Surface plasmon resonance follows binding to a sensor surface in real time, without labels.
The target is the same in assay [2]. Description: SPR; mammalian derived.

Sequence of IgE-Fc3-4 (P01854 209-426): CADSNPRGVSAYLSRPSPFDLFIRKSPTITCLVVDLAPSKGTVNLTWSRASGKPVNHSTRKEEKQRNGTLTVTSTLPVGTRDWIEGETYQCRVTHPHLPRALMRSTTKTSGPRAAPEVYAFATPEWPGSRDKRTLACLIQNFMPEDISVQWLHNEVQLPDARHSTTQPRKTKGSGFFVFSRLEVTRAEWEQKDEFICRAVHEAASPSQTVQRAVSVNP
Sequence of FcεRIα (human) (P12319 26-201): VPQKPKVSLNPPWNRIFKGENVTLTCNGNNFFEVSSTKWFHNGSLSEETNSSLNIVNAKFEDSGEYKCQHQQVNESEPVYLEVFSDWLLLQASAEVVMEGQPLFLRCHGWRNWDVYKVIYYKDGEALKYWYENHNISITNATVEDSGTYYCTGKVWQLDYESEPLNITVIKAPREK

One may read the Kd as a measure of binding affinity in units of concentration. Low values mean higher affinity, high ones lower affinity. Regarding IgE-Fc3-4 (from UniProt P01854 209-426), the equilibrium dissociation constant (Kd) with FcεRIα (human) [1] worked out at 0.66 nM; with FcεRIα (human) [2], 0.933 nM.
